Data on one protein can be found in US20190269793.

Data set [1] addresses T1, Vaccinia virus E3.
T1 chain: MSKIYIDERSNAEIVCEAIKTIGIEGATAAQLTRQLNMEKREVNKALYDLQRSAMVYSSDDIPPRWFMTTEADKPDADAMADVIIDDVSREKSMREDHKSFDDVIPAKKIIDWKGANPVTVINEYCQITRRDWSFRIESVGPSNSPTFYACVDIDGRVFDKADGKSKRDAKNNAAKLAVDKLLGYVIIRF

The target in data set [2] is T2, Vaccinia virus K3.
T2 chain: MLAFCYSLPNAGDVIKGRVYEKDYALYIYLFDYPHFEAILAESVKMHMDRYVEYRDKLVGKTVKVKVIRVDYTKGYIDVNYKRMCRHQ

B1: RNA-dependent protein kinase (PKR) (protein)
chain: AGDLSAGFFMEELNTYRQKQGVVLKYQELPNSGPPHDRRFTFQVIIDGREFPEGEGRSKKEAKNAAAKLAVEILNKEKKAVSPLLLTTTNSSEGLSMGNYIGLINRIAQKKRLTVNYEQCASGVHGPEGFHYKCKMGQKEYSIGTGSTKQEAKQLAAKLAYLQILSEETSVKSDYLSSGSFATTCESQSNSLVTSTLASESSSEGDFSADTSEINSNSDSLNSSSLLMNGLRNNQRKAKRSLAPRFDLPDMKETKYTVDKRFGMDFKEIELIGSGGFGQVFKAKHRIDGKTYVIKRVKYNNEKAEREVKALAKLDHVNIVHYNGCWDGFDYDPETSDDSLESSDYDPENSKNSSRSKTKCLFIQMEFCDKGTLEQWIEKRRGEKLDKVLALELFEQITKGVDYIHSKKLIHRDLKPSNIFLVDTKQVKIGDFGLVTSLKNDGKRTRSKGTLRYMSPEQISSQDYGKEVDLYALGLILAELLHVCDTAFETSKFFTDLRDGIISDIFDKKEKTLLQKLLSKKPEDRPNTSEILRTLTVWKKSPEKNERHTC
Turning to B1, the “PKR autophosphorylation (Western blot with phospho-PKR specific antibody)” value in data set [1] was “E3 and K3 reduce PKR autophosphorylation”; in data set [2], “E3 and K3 reduce PKR autophosphorylation”.
